Assay results from the supplement of paper PMC12042874.
± gives the uncertainty stated by the source.

Assay: amyloid nucleation score (Sup35N fusion, yeast selection) (log enrichment); library NNK1; higher = more nucleation; inactive = no reads after selection
Summary of the method: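 The nucleation score is a DiMSum log enrichment of output over input reads, centred on the mode score of non-aggregating sequences. Sequences under 100 input reads were excluded, and reads came from Illumina sequencing of plasmid inserts. Psi-negative yeast expressing Sup35N fused to peptides of 20 random codons were induced with 100 μM copper sulfate for 24 hours and grown 7 days at 30°C on medium lacking adenine and uracil. Random libraries had three technical output replicates.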

| Substance | amyloid nucleation score |
| --- | --- |
| MLPLCMSAIRRVKLRSPSEY | 0.151 ± 0.52 |
| MLQCYLLFARYLLRNLSWGW | 0.59 ± 0.62 |
| MLSTTLALLTERSFGAY | 0.021 ± 0.39 |
| MLTECSRFLNVFGVGEHEVN | -0.162 ± 0.58 |
| MLTNVSNICYWNDVVGDSLA | 0.838 ± 0.28 |
| MLTPDLSSDLDILRPTSPLT | 0.879 ± 0.51 |
| MLVHYVAFVFNMSTRCNCSE | 6.253 ± 0.046 |
| MLVLRMYYTRNS | 2.24 ± 0.23 |
| MLVYYNDKSVFHRFVLLRN | 0.644 ± 0.85 |
| MMGGSRWTCCYTFDFWSCWD | 4.27 ± 0.1 |
| MMLSLISVQV | 0.379 ± 0.68 |
| MMPSECMEFLMCLWFGSGSD | -0.722 ± 0.55 |
| MMSSFDVWDS | -0.077 ± 0.73 |
| MNFDCFPNSL | 1.22 ± 0.35 |
| MNIVIHIPNMRMAAKD | 7.17 ± 0.08 |
| MNKQAFNGRM | inactive |
| MNLRETSAFSPCNEVL | -0.063 ± 1.4 |
| MNTWDMSLIPWSLARWVNTA | 0.063 ± 0.4 |
| MNVFVSRNYVYLKYEFRSLA | 6.642 ± 0.051 |
| MPEILSVRSF | -0.943 ± 0.32 |
| MPLKVSSMDLGRIKE | -0.333 ± 0.41 |
| MPLLYSVSHCWFKPAFGWAW | 0.442 ± 0.69 |

| Substance | amyloid nucleation score |
| --- | --- |
| MPPMYGRGRPMNKIGVWDYA | 1.14 ± 0.51 |
| MPRLTDRDKLCDFVNLQFIF | 6.7 ± 0.073 |
| MQVVKIGKLFG | -0.112 ± 0.39 |
| MQWWVGYAIITEN | -0.119 ± 0.56 |
| MRACRYANLNVSRNMWGICG | 0.743 ± 0.48 |
| MRDTFFLDRMQITLCSW | 0.306 ± 0.33 |
| MRFKFMALGCEVLILGGFGS | 3.72 ± 0.16 |
| MRNIVWCCSVVLCCLFGVLF | 0.385 ± 0.69 |
| MRNVTFTGLMLDSDWNVH | -0.338 ± 1.1 |
| MRQWSGQG | 0.758 ± 1 |
| MRTPGCVMF | -0.44 ± 0.93 |
| MRYVMTFFFHSYKA | -1.15 ± 0.91 |
| MSCTVHLGLFMESTNHYCMC | inactive |
| MSCYLQAFDITTTTNDASWW | -0.95 ± 1.6 |
| MSDVCNVMKKVMQGTCFCGH | -0.293 ± 0.27 |
| MSIQCTSALGPL | 2.13 ± 0.35 |
| MSKYALNLAMVDRGLSKDQN | -0.898 ± 1.6 |
| MSLDAFV | inactive |
| MSLLALWCLSVRCTVVLVRT | -0.003 ± 0.48 |
| MSMYYISSCIISLSQVGMYV | 1.26 ± 0.38 |
| MSNMHNYLRLIWDTVCIQF | -0.083 ± 0.77 |
| MSRIEGHRLDVLSRHFR | -0.046 ± 0.32 |

| Substance | amyloid nucleation score |
| --- | --- |
| MSVNSRNMNKYLFWNKL | -0.029 ± 0.3 |
| MSYIQRMGVYLTITGLRGMK | -0.527 ± 1 |
| MTSLDFNYGISKLESSFYMY | -0.739 ± 0.29 |
| MTTRIFSLKIA | 0.066 ± 0.81 |
| MTWIENKPLHNVRCRGIIAV | -0.12 ± 0.43 |
| MVAIMQISMGSAVFLYAR | 4.24 ± 0.097 |
| MVAIRWYRMGLDDMNSGTVN | 0.094 ± 0.27 |
| MVGYGECIDMWPMLVKVDVV | -0.378 ± 0.69 |
| MVIRYFCQESA | -0.799 ± 1.1 |
| MVLTFAV | -1.36 ± 2.4 |
| MVMMFTTDSMQAN | 0.906 ± 0.52 |
| MVMNTKCE | -0.643 ± 0.55 |
| MVRNKQKLLKGQ | 0.375 ± 0.49 |
| MVRYLGYYLPNWRSFHWHRL | 0.951 ± 0.44 |
| MVSHKDQRIGPLLASVAHVR | -1.69 ± 1.3 |
| MVSIWINFT | 6.38 ± 0.08 |
| MWGMF | -0.132 ± 0.35 |
| MWHGSVTMGGIRGTRDSVHQ | 0.792 ± 0.53 |
| MWSYNLYNLVVTS | 1.1 ± 0.28 |
| MWTRHCN | 0.483 ± 0.55 |
| MWVCSYA | inactive |
| MWVLRPCCHFAVCRGIKVSR | -0.046 ± 0.53 |

| Substance | amyloid nucleation score |
| --- | --- |
| MYGGKCSNGPCMYSVGIGTW | 1.39 ± 0.34 |
| MYPRSCIHVMCFTVVKASVG | -1.26 ± 0.74 |
| MYVPQSINSYTQWEPKHIRW | 1.64 ± 0.43 |
| MYVSDCCSCICMVVDTRSIF | 0.292 ± 0.39 |
| NACDCQPMFVMQWYRRVEPR | -0.167 ± 0.53 |
| NACIQVTGRCCIACVVEFWY | 1.32 ± 0.38 |
| NACRCVYSGRVSAYDVRVRN | 0 ± 0.6 |
| NADMFRTVLMMMFPAFRLIR | 0.172 ± 0.22 |
| NARFWVRCIDVHFGVKAGDG | inactive |
| NAVINQ | 0.388 ± 0.73 |
| NCCGSLETSSVSVVYLMWGW | 5.917 ± 0.05 |
| NCDKMVNMLPLRFSDIALSM | -0.566 ± 0.5 |
| NCGVYIVYQKRLQAVGYCAN | -0.312 ± 0.3 |
| NCKNVYCFKYASGIGERAFY | 0.091 ± 0.42 |
| NCPFEW | -0.116 ± 0.55 |
| NCSGCIWVRMCLNHFGVCTD | 2.38 ± 0.16 |
| NCSGSRLFLMSLSL | 6.52 ± 0.066 |
| NCSLILTTKRNRWYLQRLRF | 0.467 ± 0.33 |
| NCTARMKVGFAGFSFTLWIA | 0.533 ± 0.56 |
| NCVQARFDERCVRGLGCKFY | -0.724 ± 0.64 |
